Measurements reported in the Human Domainome abundance scans (Beltran et al. 2025).
± gives the uncertainty stated by the source.

B1: COUP transcription factor 1, residues 83 to 159; numbered along this chain, P10589 (parent)
chain: HIECVVCGDKSSGKHYGQFTCEGCKSFFKRSVRRNLTYTCRANRNCPIDQHHRNQCQYCRLKKCLKVGMRREAVQRG

Variants of: B1
Experiment: abundance fitness (aPCA) (normalised: wild type 0, dead -1); higher = more abundant; growth selection in yeast, the domain comes from the species named
Settings: Homo sapiens

Variant	abundance fitness
HIECVVCGDKSSGKHYGQFTCEGCKSFFKQSVRRNLTYTCRANRNCPIDQHHRNQCQYCRLKKCLKVGMRREAVQRG [R30Q]	-0.411 ± 0.26
HIECVVCGDKSSGKHYGQFTCEGCKSFAKRSVRRNLTYTCRANRNCPIDQHHRNQCQYCRLKKCLKVGMRREAVQRG [F28A]	-0.809 ± 0.11
HIECVVCGDKSSGKHYGQFTCEGCKSFFKRSVRRNLTYTCRANRNCPIDSHHRNQCQYCRLKKCLKVGMRREAVQRG [Q50S]	-0.086 ± 0.054
HIECVVCGDKSSGKHYGQFTCEGCKSFFKRSVRRNLTYTCRANRNCPIDAHHRNQCQYCRLKKCLKVGMRREAVQRG [Q50A]	0.063 ± 0.037
HIECVVCGDKSSGKHYGQFTCEGCKSFFKRSVRRNLTYTCRANRNCPIDQHHRNQCQYCRLKKCTKVGMRREAVQRG [L65T]	-0.133 ± 0.052
HIECVVCGDKSSGKHYGQFTCEGCKSFFKRSVRRNLTYTCRANRNCPIDQHHRNQCQYCRLKKCRKVGMRREAVQRG [L65R]	-0.497 ± 0.044
HIECVVCGDKSSGKHYGMFTCEGCKSFFKRSVRRNLTYTCRANRNCPIDQHHRNQCQYCRLKKCLKVGMRREAVQRG [Q18M]	0.067 ± 0.12
HIECVVCGDKSSGKHYGDFTCEGCKSFFKRSVRRNLTYTCRANRNCPIDQHHRNQCQYCRLKKCLKVGMRREAVQRG [Q18D]	0.08 ± 0.13
HIECVVCGDKSSGKHYGQFTCEGCKSFFKRSVRRNLTYTCRANRNCPIDQIHRNQCQYCRLKKCLKVGMRREAVQRG [H51I]	-0.244 ± 0.13
HIECVVCGDKSSGKHYGQFTCEGCKSFFKRSVRRNLTYTCRANRNCPIDQHHRNQCQYCRLKKCLKVGYRREAVQRG [M69Y]	-0.77 ± 0.16
HIECVVCGDKSSGKHYGQFTCEGCKSFFKRSVRRNLTYTCRANRNCPIDQHERNQCQYCRLKKCLKVGMRREAVQRG [H52E]	0.08 ± 0.051
HIECVVCGDKSSMKHYGQFTCEGCKSFFKRSVRRNLTYTCRANRNCPIDQHHRNQCQYCRLKKCLKVGMRREAVQRG [G13M]	-0.049 ± 0.068
HIECVVCGDKSSSKHYGQFTCEGCKSFFKRSVRRNLTYTCRANRNCPIDQHHRNQCQYCRLKKCLKVGMRREAVQRG [G13S]	-0.193 ± 0.049
HIECVVCGDKSSGKHYGQFTCEGCKSFFKRSVRRNLTYTCRAPRNCPIDQHHRNQCQYCRLKKCLKVGMRREAVQRG [N43P]	-0.256 ± 0.17
HIECVVCGDKLSGKHYGQFTCEGCKSFFKRSVRRNLTYTCRANRNCPIDQHHRNQCQYCRLKKCLKVGMRREAVQRG [S11L]	-0.281 ± 0.068
HIECVVCGDKSSGKHYGQFTCEGCKSFFKRSVRRNLTYTCRANKNCPIDQHHRNQCQYCRLKKCLKVGMRREAVQRG [R44K]	-0.071 ± 0.064
HIECVVCGDKSSGKHYGQFTCEGCKSFFKRSVRRNLTYTCRANQNCPIDQHHRNQCQYCRLKKCLKVGMRREAVQRG [R44Q]	-0.048 ± 0.065
HIECVVCGDKSSGKHYGQFTCESCKSFFKRSVRRNLTYTCRANRNCPIDQHHRNQCQYCRLKKCLKVGMRREAVQRG [G23S]	-0.174 ± 0.23
HIECVVCGDKSSGKHYGQFTCECCKSFFKRSVRRNLTYTCRANRNCPIDQHHRNQCQYCRLKKCLKVGMRREAVQRG [G23C]	0.001 ± 0.36
HIECVVCGDKSSGKHYGQFTCELCKSFFKRSVRRNLTYTCRANRNCPIDQHHRNQCQYCRLKKCLKVGMRREAVQRG [G23L]	-0.544 ± 0.36
HIECEVCGDKSSGKHYGQFTCEGCKSFFKRSVRRNLTYTCRANRNCPIDQHHRNQCQYCRLKKCLKVGMRREAVQRG [V5E]	-0.042 ± 0.1
HIECIVCGDKSSGKHYGQFTCEGCKSFFKRSVRRNLTYTCRANRNCPIDQHHRNQCQYCRLKKCLKVGMRREAVQRG [V5I]	0.314 ± 0.12
HIECKVCGDKSSGKHYGQFTCEGCKSFFKRSVRRNLTYTCRANRNCPIDQHHRNQCQYCRLKKCLKVGMRREAVQRG [V5K]	0.31 ± 0.11
HIECVVCGDKSSGKHYGQFTCEGCKSFFKRSVRRNLTYTCRANRNCPIDQHHRNQCWYCRLKKCLKVGMRREAVQRG [Q57W]	0.156 ± 0.068

Variant	abundance fitness
HIECVVCGDKSSGKHYGQFTCEGCKSFFKRSVRRNLTYTCRANRNCPIDQHHRNQCAYCRLKKCLKVGMRREAVQRG [Q57A]	-0.035 ± 0.058
HIECVVCGDKSIGKHYGQFTCEGCKSFFKRSVRRNLTYTCRANRNCPIDQHHRNQCQYCRLKKCLKVGMRREAVQRG [S12I]	-0.027 ± 0.068
HIGCVVCGDKSSGKHYGQFTCEGCKSFFKRSVRRNLTYTCRANRNCPIDQHHRNQCQYCRLKKCLKVGMRREAVQRG [E3G]	-0.402 ± 0.04
HIECVVCGDKSSGKHYGQFTCEGCKSFFKRSVRRNLTYTCRANRNCPIDQHHRNQCQYCRDKKCLKVGMRREAVQRG [L61D]	-0.799 ± 0.12
HIECVVCGDKSSGKHYGQFTCEGCKSFFKRSVRRNLTYTCRANRNCPIDQHHRNQCQYCRLKKCLKVKMRREAVQRG [G68K]	-0.747 ± 0.099
HIECVVCGDKSSGKHYGQFTCEGCKSFFKRSVRRNLTYTCRANRNCPIDQHHRNGCQYCRLKKCLKVGMRREAVQRG [Q55G]	-0.017 ± 0.037
HIECVVCGDKSSGKHYGQFTCEGCKSFFKRSVRRNLTYTCRANRNCPIDQHHRNICQYCRLKKCLKVGMRREAVQRG [Q55I]	0.006 ± 0.06
HIECVVCGDKSSGKHYGQFTCEGCKSFFKRSVRRNLTYTCRANRNCPIDQHHRNQCQYCRLKKCLKVGMRRENVQRG [A73N]	0.064 ± 0.065
HIECVVCGDKSSGKHYGQFTCEGCKSFFKRSVRRNLTYTCRANRNCPIDQHHRSQCQYCRLKKCLKVGMRREAVQRG [N54S]	-0.033 ± 0.051
HIECVVCGDKSSGKHYGQFTCEGCKSFFKRSVRRNLTYTCRANRNCPIDQHHREQCQYCRLKKCLKVGMRREAVQRG [N54E]	0.075 ± 0.053
HIECVVCGDKSSGKHYGQFTCEGCKSFFKRSVRRNLTYTCRANRNCPIDQHHRNQCQYCRLKKCLKVGMRREAVFRG [Q75F]	-0.026 ± 0.07
HIECVVCGDKSSGKHYGQFTCEGCKSFFKRSVRRNLTYTCRANRNCPWDQHHRNQCQYCRLKKCLKVGMRREAVQRG [I48W]	-0.283 ± 0.063
HIECVVCGDKSSGKHYGQFTCEGCKSFFKRSVRRNLTYTCRANRNCPLDQHHRNQCQYCRLKKCLKVGMRREAVQRG [I48L]	-0.147 ± 0.046
HIECVVCGDKSSGKHYGQFTCEGCKSFFKRSVRRNLTYTCRANRNCPGDQHHRNQCQYCRLKKCLKVGMRREAVQRG [I48G]	-0.466 ± 0.071
HIECVVCGDKSSGKHYGQFTCEGCKSFFKRSVRRNLTYTCRANRNCPEDQHHRNQCQYCRLKKCLKVGMRREAVQRG [I48E]	-0.23 ± 0.092
HIECVVCGDKSSGKHYGQFTCEGCKSFFKRSVRRNLTCTCRANRNCPIDQHHRNQCQYCRLKKCLKVGMRREAVQRG [Y38C]	-0.745 ± 0.25
HIECVVCGDKSSGKHYGQFTCEGCKSFFKRSVRRNLTSTCRANRNCPIDQHHRNQCQYCRLKKCLKVGMRREAVQRG [Y38S]	-0.791 ± 0.19
HIECVVCGDKSSGKHYGQFTCEGCSSFFKRSVRRNLTYTCRANRNCPIDQHHRNQCQYCRLKKCLKVGMRREAVQRG [K25S]	0.067 ± 0.051
HIECVVCGDKSSGKHYGQFTCEGCKSFFKRSVRRNLTYTCRANRNCPIDQHHRNQDQYCRLKKCLKVGMRREAVQRG [C56D]	-0.815 ± 0.28
HIECVVCGDKSSGKHYGQFTCEGCKSFFKRSVRRNLTYTCRENRNCPIDQHHRNQCQYCRLKKCLKVGMRREAVQRG [A42E]	0.084 ± 0.078
HIECVVCGDKSSGKHYGQYTCEGCKSFFKRSVRRNLTYTCRANRNCPIDQHHRNQCQYCRLKKCLKVGMRREAVQRG [F19Y]	0.352 ± 0.15
HIECVVCGDKSSGKHYGQGTCEGCKSFFKRSVRRNLTYTCRANRNCPIDQHHRNQCQYCRLKKCLKVGMRREAVQRG [F19G]	-0.53 ± 0.071
HIECVVCGDKSSGKHYGQFTCEGCKSFFKRSVRRNLTYTCRANRNCPIDQHHRNQCQYCRLKKCLYVGMRREAVQRG [K66Y]	-0.033 ± 0.058
HIECVVCGDKSSGKHYGQFTCEGCKSFFKRSVRRNLTYTCRANRNCPIDQHHRNQCQYYRLKKCLKVGMRREAVQRG [C59Y]	-0.789 ± 0.19

Variant	abundance fitness
HIECVVCGDKSSGKHYGQFTCEGCKSFFKRSVRRNLTYTCRANRNCPIDQHHRNQCQYCRLKKCLKVGMRREAVQRV [G77V]	-0.041 ± 0.043
HIECVVCGDKSSGKHYGQFTCEGCKSFFKRSVRRNLTYTCRANRNCPIDQHHRNQCQYCRLKKCLKVGMRREAVQRD [G77D]	0.117 ± 0.093
HIECVVCGDKSSGKHYGQFTCEGCKSFFKRSVRRNLTYTKRANRNCPIDQHHRNQCQYCRLKKCLKVGMRREAVQRG [C40K]	-0.384 ± 0.1
HIECVVCGDKSSGKHYGQFTCEGCKSFFKRSVRRNLAYTCRANRNCPIDQHHRNQCQYCRLKKCLKVGMRREAVQRG [T37A]	0.085 ± 0.051
HIECVVCGDKSSGKHYGQFTCEGCKAFFKRSVRRNLTYTCRANRNCPIDQHHRNQCQYCRLKKCLKVGMRREAVQRG [S26A]	-0.184 ± 0.1
HIECVVCGDKSSGKHYGQFTCEGCKSFFKRSVRRNLTYTCRANRNPPIDQHHRNQCQYCRLKKCLKVGMRREAVQRG [C46P]	-0.587 ± 0.18
HIECVVCGDKSSGKHYGQFTCEGCKSFFKRSVRRNLTYTCRANRNAPIDQHHRNQCQYCRLKKCLKVGMRREAVQRG [C46A]	-0.519 ± 0.085
HIECVVCGDKSSGKHYGQFTCEGCKSFFKRSVRRNLTYTCRANRNVPIDQHHRNQCQYCRLKKCLKVGMRREAVQRG [C46V]	-0.433 ± 0.063
HIECVVCGDKSSGKHYGQFTCEGCKSFFKRSVRRNLTYTCRANRNIPIDQHHRNQCQYCRLKKCLKVGMRREAVQRG [C46I]	-0.267 ± 0.2
HIECVVCGDKSSGKHYGQFTCEGCKSFFKRSVRSNLTYTCRANRNCPIDQHHRNQCQYCRLKKCLKVGMRREAVQRG [R34S]	-0.193 ± 0.098
HIECVVCGDESSGKHYGQFTCEGCKSFFKRSVRRNLTYTCRANRNCPIDQHHRNQCQYCRLKKCLKVGMRREAVQRG [K10E]	-0.104 ± 0.06
HIECVVCGDFSSGKHYGQFTCEGCKSFFKRSVRRNLTYTCRANRNCPIDQHHRNQCQYCRLKKCLKVGMRREAVQRG [K10F]	-0.029 ± 0.11
HIECVVCGDKSSGKHYGQFTCEGCKSFFKRSVRRNLTYTCRANRNCPIYQHHRNQCQYCRLKKCLKVGMRREAVQRG [D49Y]	-0.261 ± 0.078
HIECVVCGDKSSGKHYGQFTCEGCKSFFKRSVRRNLTYTCRANRNCPISQHHRNQCQYCRLKKCLKVGMRREAVQRG [D49S]	-0.044 ± 0.044
HIECVVCGDKSSGKHYGQFTCEGCKSFFKRSVRRNLTYTCRANRNCPITQHHRNQCQYCRLKKCLKVGMRREAVQRG [D49T]	-0.152 ± 0.049
HIECVVCGDKSSGKHYGQFTCEGCKSFFKRSVRRNLTYTCRANRNCPIKQHHRNQCQYCRLKKCLKVGMRREAVQRG [D49K]	-0.343 ± 0.087
HIECVVCGDKSSGKHYGQFTCEGCKSFFKRSVRRNLTYTCRANRNCPICQHHRNQCQYCRLKKCLKVGMRREAVQRG [D49C]	-0.726 ± 0.13
HIECVVCGDKSSGRHYGQFTCEGCKSFFKRSVRRNLTYTCRANRNCPIDQHHRNQCQYCRLKKCLKVGMRREAVQRG [K14R]	-0.217 ± 0.12
HIECVVCGDKSSGNHYGQFTCEGCKSFFKRSVRRNLTYTCRANRNCPIDQHHRNQCQYCRLKKCLKVGMRREAVQRG [K14N]	0.019 ± 0.39
HIECVVCGDKSSGKHYGQFTTEGCKSFFKRSVRRNLTYTCRANRNCPIDQHHRNQCQYCRLKKCLKVGMRREAVQRG [C21T]	-0.742 ± 0.16
HIECVVCGDKSSGKHYGQFTAEGCKSFFKRSVRRNLTYTCRANRNCPIDQHHRNQCQYCRLKKCLKVGMRREAVQRG [C21A]	-0.707 ± 0.098
HIECVVWGDKSSGKHYGQFTCEGCKSFFKRSVRRNLTYTCRANRNCPIDQHHRNQCQYCRLKKCLKVGMRREAVQRG [C7W]	-0.821 ± 0.14
HIECVVGGDKSSGKHYGQFTCEGCKSFFKRSVRRNLTYTCRANRNCPIDQHHRNQCQYCRLKKCLKVGMRREAVQRG [C7G]	-0.733 ± 0.069
